# Test results from PMC3167817.
# Tests used:
# [1] = molecular target: EGFR on NIH/EGFR cells (human) (UniProt P00533); assay: cell binding, radiolabeled aptamer; conditions: apparent Kd; parental NIH3T3 not bound; 2'-fluoro pyrimidines; Filter binding: 1 nM radiolabeled RNA, PBS + 0.01% BSA, 15 min, 37 C (5 mM DTT for monomer); CL4sc background subtracted; pull-down: 200 nM aptamer on A549 …
# [2] = molecular target: EGFR on A549 cells (endogenous) (human) (UniProt P00533); assay: cell binding, radiolabeled aptamer; conditions: A549 cells; binding decreased by EGFR shRNA and 1 uM EGF; 2'-fluoro pyrimidines; Filter binding: 1 nM radiolabeled RNA, PBS + 0.01% BSA, 15 min, 37 C (5 mM DTT for monomer); CL4sc background subtracted; pull-down: 200 nM aptamer on A549 …
sequence,measurement,setting,value
GCCUUAGUAACGUGCUUUGAUGUCGAUUCGACAGGAGGC [CL4],Kd,[1],60 nM
same,Kd,[2],38 nM
